According to publication PMC3094553 (Nature methods, 2009):
Where “and” joins values, the source holds several entries; their conditions need not be identical. Identical values can stand only once.

B1: PF0014/0015 complex (complex)
chain 1: MEEKKPVNLVLPEVENAIFIEGYPGVGLVGHIAANFLAKELDMDLIGYVDSLFIPPMSLILEGRPTPPLRFYGKNNIIIAIADIFLPPTLVNEIAKEIVNYLKKVNAEKVISLAGMGIGFFKDTFEVWGIGGSEEENKELESLGVKILKYGSITGMSGKLLWEASRAGLKSYVLLGETFGDRPDPRAAANVVEVLNKMLGLNVSVEPLLKEAEMIEEQLRRMHEQMEEARRKMERQYETMYL
chain 2: MVVEIPLLSGIARRTLDALMRNPIRTVEIRNARNYMTLEKVKEGDLVFLTYESLEDVMRGTEGIIAMVTRMEKSHQRVPWEESDEREISICRVQLKLVGLGRVVEVQEKNGVVFVKVREMLHHEISMG
B2: PF1950 (phosphoribosyl transferase) (natural protein)
chain: MKKFPAYLASWEDIENWAKAGAWKVLESGWMPDVIVGLARGGWIAARLYCDYLGVKDLVSIKVEHWGVTATPDGRARLKYGAQYDFEGKKVLIVDDITDTGESMSLAYEYMKSRNPAEIRTATLLNIKGSKFVPDYYAKDIDWVWVVFPWNFVEDMINLTNNLFEEKDKLTTDEIISLFKELHGIEVPREKLEEALRMAEKRKIFKFENGFWTKV
B3: PF0939 (isopropylmalate dehydratase) (natural protein)
chain: MKARGRAWKYGDNIDTDVIIPARYLNTSDPKELAQHVLEDLDPEFRYKMKPGDIIVAGENFGCGSSREHAPLAIKAAGVSAVIAKSFARIFYRNAINIGLPILEAPEAVERIETGDEIEIDFSTGEIRNLTKGEVYHANPFPEFIMEIIKAGGLVEWAKRRLAK
B4: PF0619 (conserved hypothetical protein) (natural protein)
chain: MLVPGRVYLFRIPEGKEIIEFLREFAEKENIKVGIISAIGTLRNPVIGYFMEEEKKYKEISLTGTYELLSLSGNISLKDGKPFVHAHVVLGDSEGRAFGGHLVRGEVFVAEVFVQELEGETLERKPTEHGLALW
B5: PF0380 (conserved hypothetical protein) (natural protein)
chain: MGVEKVPKYDIPVKKVEYVFIELDKMKPHEQLVQRELEDFIESVTGSGIFWKPMLLAKIPGTDEYLIVDGHHRWAGLQKLGAKRAPSVILDYFDEGVKVYTWYPAFKGDVNKVIERLKAEGLEVIEDEKAEEKAEKGEIAFALIGEKSFAIPGGLEEQKKVSKVLDEMDQAKEIELVYYGLKEDAKADMEKGEIDYVFIRKAPTKEEVMELVKRGEVFSPKTTRHVLPFIPDKIDVKLEDLF
B6: PF1911 (ferredoxin NADP reductase) (natural protein)
chain: MYKILEKKEIAMRNTWYKVYAPHVAKKVQPGQFVIVRAFPNGERIPLTPVMWDREEGWIVLIVFTRGKTTMRMAVELKEGDSLLNVAGPLGTPVPMEKFGKILAIGAYTGIVEVYPIAKAWQEIGNDVTTLHVTFEPMVILKEELEKAVTRHIVEPVPLNPNQDFLANMKNVSQRLKEKVRELLESEDWDLVFMVGPVGDQKQVFEVVKEYGVPMKVDLHPIMVDGTGMCGACRVTVGGEVKFACVDGPEFDAYQVDWDELIHRVGFYAKLEKLALEKYMEELKAKGVI
B7: PF0259 (conserved hypothetical protein) (natural protein)
chain: MAVIIEFSLIPLGEVSVSKYIAEAIKLLEEKGVKYQLTPMGTIIEVGSVEEGLKIVGEAHELMFKLGVKRVVTHIKIDDRRDKERKMEDKVKSVIEKVKK
B8: acetyl-CoA synthetase subunit (PF1787) (natural protein)
chain: MDRVAKAREIIEKAKAENRPLVEPEAKEILKLYGIPVPEFKVARNEEEAVKFSGEIGYPVVMKIVSPQIIHKSDAGGVKINIKNDEEAREAFRTIMQNARNYKPDADLWGVIIYRMLPLGREVIVGMIRDPQFGPAVMFGLGGIFVEILKDVSFRVAPITKEDALEMIREIKAYPILAGARGEKPVNIEALADIIVKVGELALELPEIKEIDINPIFAYEDSAIAVDARMIL
B9: superoxide reductase (PF1281, SOR) (enzyme)
chain: MISETIRSGDWKGEKHVPVIEYEREGELVKVKVQVGKEIPHPNTTEHHIRYIELYFLPEGENFVYQVGRVEFTAHGESVNGPNTSDVYTEPIAYFVLKTKKKGKLYALSYCNIHGLWENEVTLE
B10: PF1033 (thioredoxin-like fold) (natural protein)
chain: MIVIGEKFPEVEVKTTHGVIKLPDHFTKQGKWFMLFSHPADFTPVCTTEFYGLQIRLEKFRELGVEPIGLSVDQVFSHLKWMEWIKEKLGVEIEFPVIADDRGDLAEKLGMIPSGSTITARAVFIVDDKGIIRAIVYYPAEVGRDWDEILRLVKALKISTEKGVALPHKWPNNELIGDKVIVPPASSVEQIKEREEAKAKGEIECYDWWFCYKKLE
B11: PF1372 (conserved hypothetical protein) (natural protein)
chain: MTEIRYYKIGEDRFKISEDEVARRELRVAKVSDDVIQIQEEVHGIIALVGATSSVNIKKEELKELVKLVREEFGWDI
B12: PF1291 (phosphoesterase) (natural protein)
chain: MVYVAVLANIAGNLPALTAALSRIEEMREEGYEIEKYYILGNIVGLFPYPKEVIEVIKDLTKKENVKIIRGKYDQIIAMSDPHATDPGYIDKLELPGHVKKALKFTWEKLGHEGREYLRDLPIYLVDKIGGNEVFGVYGSPINPFDGEVLAEQPTSYYEAIMRPVKDYEMLIVASPMYPVDAMTRYGRVVCPGSVGFPPGKEHKATFALVDVDTLKPKFIEVEYDKKIIEERIRAEGLPEEIIKILYHGGRP
B13: PF0230 (ArsR transcription regulator) (natural protein)
chain: MTKRVKVITDPEVIKVMLEDTRRKILQLLRNREMTISQLSEILGKMPQTIYHHIEKLKEAGLVEVKRTEMKGNLVEKYYGRTADVFYINLYMGDEELRYLARSRLKTKLDIFKKLGYKFDEEELLNVMDRILEKEHEVKVEISKEIENVEDSLKEFSNEDIIHAIEWLAMARLAQDEEYIELVKKLGQILKR
B14: PF0094 (glutaredoxin-like) (natural protein)
chain: MGLISDADKKVIKEEFFSKMVNPVKLIVFVRKDHCQYCDQLKQLVQELSELTDKLSYEIVDFDTPEGKELAKRYRIDRAPATTITQDGKDFGVRYFGLPAGHEFAAFLEDIVDVSREETNLMDETKQAIRNIDQDVRILVFVTPTCPYCPLAVRMAHKFAIENTKAGKGKILGDMVEAIEYPEWADQYNVMAVPKIVIQVNGEDRVEFEGAYPEKMFLEKLLSALS
B15: PF0715 (NADH oxidase) (natural protein)
chain: MEFFEVLKKRRSIRRFQDKPVPRELIEKLLEAAFLSPSSYNKRPCHFIVVDDREKLEALSKSKLGASGLKTAPVAIVVTADESKSDVWIEDASIAAEHIHLASYALGLASFWVQIRNRMHNETKTAEEYVRELLNIPENYRVLCIIGVGYPAEDKPPHGNEVFEWEKVSYNEFGKRFK
B16: ferredoxin (PF1909, Fd) (natural protein)
chain: AWKVSVDQDTCIGDAICASLCPDVFEMNDEGKAQPKVEVIEDEELYNCAKEAMEACPVSAITIEEA

Biological target: the molecule itself
Test: SAXS

Row | Protein | stoichiometry N
1 | B1 | > 8

Biological target: the molecule itself
Test: SAXS
Remark: another data set of the same source

Row | Protein | stoichiometry N | percent of the sample as 2-mer
2 | B2 | 2 | –
3 | B3 | 2 | –
4 | B4 | 3 | –
5 | B5 | 2 | 68%
6 | B6 | 2 | –
7 | B7 | 8 | –
8 | B8 | 3 | –
9 | B9 | 4 | –
10 | B10 | 10 | –
11 | B11 | 4 | –
12 | B12 | 4 | –
13 | B13 | 2 | –
14 | B14 | 4 and 2 | 92%
15 | B15 | 2 | –
16 | B16 | 2 | 40%
